Laboratory results as given in patent US20250043302A1, “MUTATED HYDROXYPHENYLPYRUVATE DIOXYGENASE POLYPEPTIDE, AND CODING GENE AND USE THEREOF” (BEIJING DABEINONG BIOTECHNOLOGY CO., LTD., priority 2021, published 2025).

What was measured:
[1] = test system: Arabidopsis thaliana T1 plants; experiment: Isoxaflutole tolerance of transgenic Arabidopsis thaliana T1 plants (spray, bleached leaf area grade, damage score); format: in vivo; conditions: Table 11; for Classification and statistics of the grade of pesticide damage Grade 0: number of plants at grade 0; for Classification and statistics of the grade of pesticide damage Grade 1: number of plants at grade 1; for Classification and statistics of the grade of pesticide damage Grade 2: number of plants at grade 2; for Classification and statistics of the grade of pesticide damage Grade 3: number of plants at grade 3; for Scores: pesticide damage score;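 on Scores: Weighted damage index from 0 to 100 where higher means more damage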
Description: T1 transformants were initially selected from the untransformed seeds using a glufosinate selection scheme. The Arabidopsis thaliana T1 plants (AsHPPD-02) into which the AsHPPD-02 nucleotide sequence was introduced, the Arabidopsis thaliana T1 plants (AsHPPDm-F372A-02) into which the AsHPPDm-F372A-02 nucleotide sequence was introduced, the Arabidopsis thaliana T1 plants (AsHPPDm-F383W-02) into which the AsHPPDm-F383W-02 nucleotide sequence was introduced, the Arabidopsis thaliana T1 plants (AsHPPDm-F372A-F383W-02) into which the AsHPPDm-F372A-F383W-02 nucleotide sequence was introduced, the Arabidopsis thaliana T1 plants (DBN11726N) into which the control recombinant expression vector DBN11726N was introduced, and the wild-type Arabidopsis thaliana plants (CK) (18 days after sowing) were sprayed respectively with topramezone at three concentrations (100 g ai/ha (four-fold field concentration, 4×), 200 g ai/ha (eight-fold field concentration, 8×), and 0 g ai/ha (water, 0×)), isoxaflutole at three concentrations (140 g ai/ha (two-fold field concentration, 2×), 280 g ai/ha (four-fold field concentration, 4×), and 0 g ai/ha (water, 0×)), and mesotrione at three concentrations (210 g ai/ha (two-fold field concentration, […]), 420 g ai/ha (four-fold field concentration, 4×), and 0 g ai/ha (water, 0×)), to determine the tolerance of Arabidopsis thaliana to the herbicides. The degree of damage caused by the herbicide was measured for each plant according to the proportion of bleached leaf area (the proportion of bleached leaf area=bleached leaf area/total leaf area×100%) 7 days after spraying (7 DAT): the case where there is basically no bleached phenotype is defined as grade 0, the case where the proportion of bleached leaf area is less than 50% is defined as grade 1, the case where the proportion of bleached leaf area is more than 50% is defined as grade 2, and the case where the proportion of bleached leaf area is 100% grade is defined as grade 3.
According to the method as described above in point 6 of Example 1, the aforementioned Arabidopsis thaliana T1 plants and wild-type Arabidopsis thaliana plants (CK) (18 days after sowing) were sprayed respectively with topramezone at three concentrations (25 g ai/ha (one-fold field concentration, 1×). 100 g ai/ha (four-fold field concentration, 4×), and 0 g ai/ha (water, 0×)), isoxaflutole at three concentrations (35 g ai/ha (half-fold field concentration, 0.5×). 70 g ai/ha (one-fold field concentration, 1×), and 0 g ai/ha (water, 0×)), and mesotrione at three concentrations (52.5 g ai/ha (half-fold field concentration, 0.5×), 105 g ai/ha (one-fold field concentration, 1×), and 0 g ai/ha (water, 0×)) to detect the tolerance of Arabidopsis thaliana to the herbicides.
According to the method as described above in point 6 of Example 1, the aforementioned Arabidopsis thaliana T1 plants and wild-type Arabidopsis thaliana plants (CK) (18 days after sowing) were sprayed with topramezone at three different concentrations (i.e., 100 g ai/ha (four-fold field concentration, 4×), 200 g ai/ha (eight-fold field concentration, 8×) and 0 g ai/ha (water, 0×)), isoxaflutole at three different concentrations (i.e., 140 g ai/ha (two-fold field concentration, 2×), 280 g ai/ha (four-fold field concentration, 4×) and 0 g ai/ha (water, 0×)), and mesotrione at three different concentrations (i.e., 210 g ai/ha (two-fold field concentration, 2×), 420 g ai/ha (four-fold field concentration, 4×) and 0 g ai/ha (water, 0×)) respectively to detect the herbicide tolerance of Arabidopsis thaliana. […]

[2] = test system: Arabidopsis thaliana T1 plants; experiment: Mesotrione tolerance of transgenic Arabidopsis thaliana T1 plants (spray, bleached leaf area grade, damage score); format: in vivo; parameters: Scores: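 damage score 0-100 computed as Σ(N×S)/(T×M)×100 over grades 0-3 with higher meaning more damage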; conditions: Table 12; for Classification and statistics of the grade of pesticide damage Grade 0: number of plants at grade 0; for Classification and statistics of the grade of pesticide damage Grade 1: number of plants at grade 1; for Classification and statistics of the grade of pesticide damage Grade 2: number of plants at grade 2; for Classification and statistics of the grade of pesticide damage Grade 3: number of plants at grade 3; for Scores: pesticide damage score
Method in brief: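 T1 transformants selected by glufosinate; 18-day-old plants, with empty-vector and wild-type controls, sprayed with topramezone (25–200 g ai/ha), isoxaflutole (35–280 g ai/ha) or mesotrione (52.5–420 g ai/ha), water as 0×. Bleached leaf area fraction scored at 7 DAT as grades 0–3.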

B1: AsHPPDm-A111T-F372A-02: nucleotide sequence encoding Avena sativa HPPD with A111T+F372A; vector DBN11781 (nucleic acid)
DNA: ATGCCACCTACTCCAGCTACAGCTACTGGTGCTGCTGCTGCTGCCGTTACTCCTGAGCACGCTGCCAGGTCATTCCCCAGGGTGGTTCGCGTGAACCCCAGATCTGATAGGTTCCCAGTTCTGAGCTTCCACCATGTTGAGCTGTGGTGCGCTGATGCTGCTTCTGCTGCTGGCAGGTTCTCTTTCGCTCTTGGTGCTCCACTCGCTGCTAGATCTGATCTGTCTACAGGAAATAGCGCTCATGCCTCACTCCTGCTTCGCTCAGGTGCTTTGGCCTTCCTCTTCACCGCTCCATATGCTCCCCCACCTCAGGAGGCTGCTACTGCTGCTACTACAGCCTCCATTCCAAGCTTCTCAGCTGATGCCGCTAGAACCTTCGCTGCTGCTCATGGACTTGCCGTGAGGTCTGTTGGTGTTCGCGTGGCTGATGCTGCTGAGGCTTTCAGAGTTTCCGTTGCCGGCGGAGCTAGGCCAGCTTTCGCTCCTGCTGATTTGGGACATGGTTTCGGCCTGGCTGAGGTTGAGCTTTACGGTGACGTGGTTCTCCGCTTCGTGTCTTACCCAGATGAGACTGACCTGCCTTTCCTTCCCGGCTTCGAGAGAGTTTCCTCTCCTGGTGCCGTGGATTACGGCCTGACAAGGTTCGACCACGTGGTTGGAAACGTTCCCGAGATGGCTCCAGTGATCGATTACATGAAGGGCTTCCTTGGATTCCATGAGTTCGCCGAGTTCACTGCTGAGGACGTGGGAACCACTGAGTCCGGTTTGAACTCTGTGGTTCTCGCCAACAATTCTGAGGCTGTTTTGCTCCCTCTGAATGAGCCTGTGCATGGAACCAAGAGGAGAAGCCAGATTCAAACTTACCTGGAGTACCACGGTGGCCCTGGAGTTCAGCATATCGCCCTTGCTTCTAATGATGTGTTGCGCACACTCAGAGAGATGCGCGCCAGAACCCCCATGGGAGGTTTCGAGTTCATGGCCCCACCACAGGCTAAGTACTACGAGGGCGTTAGAAGGATTGCTGGAGACGTGTTGAGCGAGGAGCAGATCAAGGAGTGCCAAGAGCTGGGTGTTCTTGTGGATAGGGATGACCAGGGCGTTCTGCTTCAAATTGCCACTAAGCCAGTGGGCGACCGCCCTACATTCTTCCTTGAGATGATTCAAAGAATCGGCTGCATGGAGAAGGATGAGGTTGGACAGGAGTACCAAAAGGGCGGATGCGGTGGCTTCGGAAAGGGTAACTTCAGCGAGTTGTTCAAGTCAATCGAGGACTACGAGAAGAGCCTCGAGGTGAAGCAGTCAGTGGTTGCCCAAAAGTCCTGA
modifications: AsHPPDm-A111T-F372A-02 Nucleotide Sequence
notes: vector DBN11781
Resistance evaluation ([1]; isoxaflutole 140 g ai/ha (2×)): Moderately | Classification and statistics of the grade of pesticide damage Grade 0 ([1]; isoxaflutole 140 g ai/ha (2×)): 5 | Classification and statistics of the grade of pesticide damage Grade 1 ([1]; isoxaflutole 140 g ai/ha (2×)): 8 | Classification and statistics of the grade of pesticide damage Grade 2 ([1]; isoxaflutole 140 g ai/ha (2×)): 1 | Classification and statistics of the grade of pesticide damage Grade 3 ([1]; isoxaflutole 140 g ai/ha (2×)): 2 | Scores ([1]; isoxaflutole 140 g ai/ha (2×)): 33 | Resistance evaluation ([1]; isoxaflutole 280 g ai/ha (4×)): Poorly resistant | Classification and statistics of the grade of pesticide damage Grade 0 ([1]; isoxaflutole 280 g ai/ha (4×)): 0 | Classification and statistics of the grade of pesticide damage Grade 1 ([1]; isoxaflutole 280 g ai/ha (4×)): 0 | Classification and statistics of the grade of pesticide damage Grade 2 ([1]; isoxaflutole 280 g ai/ha (4×)): 16 | Classification and statistics of the grade of pesticide damage Grade 3 ([1]; isoxaflutole 280 g ai/ha (4×)): 0 | Scores ([1]; isoxaflutole 280 g ai/ha (4×)): 67 | Resistance evaluation ([2]; mesotrione 210 g ai/ha (2×)): Moderately | Classification and statistics of the grade of pesticide damage Grade 0 ([2]; mesotrione 210 g ai/ha (2×)): 5 | Classification and statistics of the grade of pesticide damage Grade 1 ([2]; mesotrione 210 g ai/ha (2×)): 8 | Classification and statistics of the grade of pesticide damage Grade 2 ([2]; mesotrione 210 g ai/ha (2×)): 3 | Classification and statistics of the grade of pesticide damage Grade 3 ([2]; mesotrione 210 g ai/ha (2×)): 0 | Scores ([2]; mesotrione 210 g ai/ha (2×)): 29 | Resistance evaluation ([2]; mesotrione 420 g ai/ha (4×)): Poorly resistant | Classification and statistics of the grade of pesticide damage Grade 0 ([2]; mesotrione 420 g ai/ha (4×)): 0 | Classification and statistics of the grade of pesticide damage Grade 1 ([2]; mesotrione 420 g ai/ha (4×)): 8 | Classification and statistics of the grade of pesticide damage Grade 2 ([2]; mesotrione 420 g ai/ha (4×)): 7 | Classification and statistics of the grade of pesticide damage Grade 3 ([2]; mesotrione 420 g ai/ha (4×)): 1 | Scores ([2]; mesotrione 420 g ai/ha (4×)): 52
